Measured values from the Immune Epitope Database (IEDB).
One block for each sequence: values may come before it.

What was measured:
HLA-A*32:01 = experiment: IEDB peptide-MHC binding, purified MHC/competitive/radioactivity; filed as Kd, often an IC50 or EC50 that approximates it; ≥ and ≤ were set here for values at or beyond the usual limits of such assays
HLA-B*15:01 [1] = experiment: as above
HLA-B*15:03 = experiment: as above
HLA-B*08:01 [2] = experiment: as above; conditions: source organism: Vaccinia virus WR
HLA-A*30:01 = experiment: as above; conditions: source organism: Vaccinia virus WR
HLA-A*69:01 = experiment: IEDB peptide-MHC binding, purified MHC/direct/fluorescence; filed as Kd, often an IC50 or EC50 that approximates it; ≥ and ≤ were set here for values at or beyond the usual limits of such assays
HLA-B*15:01 [3] = experiment: as above
HLA-B*44:02 = experiment: as above; conditions: source organism: Vibrio cholerae
HLA-A*26:01 = experiment: as above
HLA-B*40:01 = experiment: as above
HLA-A*03:01 [4] = experiment: as above
HLA-B*58:01 = experiment: as above
HLA-B*07:02 [5] = experiment: as above
HLA-A*24:03 = experiment: as above
HLA-A*11:01 [6] = experiment: as above
HLA-B*08:01 [7] = experiment: as above
HLA-A*02:01 [8] = experiment: as above
HLA-A*01:01 = experiment: as above
HLA-B*27:05 = experiment: as above
HLA-B*51:01 = experiment: IEDB peptide-MHC binding, purified MHC/competitive/radioactivity; filed as Kd, often an IC50 or EC50 that approximates it; ≥ and ≤ were set here for values at or beyond the usual limits of such assays
HLA-A*31:01 = experiment: as above
HLA-A*33:01 = experiment: as above
HLA-B*53:01 = experiment: as above
HLA-A*03:01 [9] = experiment: as above
HLA-B*07:02 [10] = experiment: as above
HLA-A*68:01 = experiment: as above
HLA-A*11:01 [11] = experiment: as above
HLA-B*54:01 = experiment: as above
HLA-B*35:01 = experiment: as above
HLA-B*57:01 = experiment: IEDB peptide-MHC binding, purified MHC/direct/fluorescence; filed as Kd, often an IC50 or EC50 that approximates it; ≥ and ≤ were set here for values at or beyond the usual limits of such assays
HLA-B*15:17 = experiment: as above
HLA-A*02:01 [12] = experiment: IEDB peptide-MHC binding, purified MHC/competitive/fluorescence; filed as Kd, often an IC50 or EC50 that approximates it; ≥ and ≤ were set here for values at or beyond the usual limits of such assays; conditions: source organism: Vaccinia virus Copenhagen
HLA-A*24:02 = experiment: IEDB peptide-MHC binding, purified MHC/competitive/radioactivity; filed as Kd, often an IC50 or EC50 that approximates it; ≥ and ≤ were set here for values at or beyond the usual limits of such assays; conditions: source organism: Mammarenavirus juninense
HLA-A*29:02 = experiment: as above; conditions: source organism: Mammarenavirus juninense
HLA-A*23:01 = experiment: as above; conditions: source organism: Mammarenavirus juninense
[13] = source organism: Vaccinia virus WR
[14] = source organism: Vibrio cholerae
[15] = source organism: Haemophilus influenzae
[16] = source organism: Brucella melitensis
[17] = source organism: Vaccinia virus Copenhagen
[18] = source organism: Marburg virus - Musoke, Kenya, 1980
[19] = source organism: Mammarenavirus lassaense
[20] = source organism: Lake Victoria marburgvirus - Popp

Sequence: FQTVNFNNA
Kd (HLA-A*32:01; [13]): ≥ 50900 nM
Kd (HLA-B*15:01 [1]; [13]): 8180 nM
Kd (HLA-B*15:03; [13]): 305 nM
Kd (HLA-B*08:01 [2]): 16000 nM
Kd (HLA-A*30:01): 115 nM

Sequence: AYLLQHLDL
Kd (HLA-A*69:01; [14]): ≥ 20000 nM
Kd (HLA-B*15:01 [3]; [14]): ≥ 20000 nM
Kd (HLA-B*44:02): ≥ 20000 nM
Kd (HLA-A*26:01; [14]): ≥ 20000 nM
Kd (HLA-B*40:01; [14]): ≥ 20000 nM
Kd (HLA-A*03:01 [4]; [14]): ≥ 20000 nM
Kd (HLA-B*58:01; [14]): ≥ 20000 nM
Kd (HLA-B*07:02 [5]; [14]): ≥ 20000 nM
Kd (HLA-A*24:03; [14]): 1.53 nM
Kd (HLA-A*11:01 [6]; [14]): ≥ 20000 nM
Kd (HLA-B*08:01 [7]; [14]): ≥ 20000 nM
Kd (HLA-A*02:01 [8]; [14]): ≥ 20000 nM
Kd (HLA-A*01:01; [14]): ≥ 20000 nM
Kd (HLA-B*27:05; [14]): ≥ 20000 nM

Sequence: ILMIFISSFL
Kd (HLA-B*51:01; [13]): 4910 nM
Kd (HLA-A*31:01; [13]): 625 nM
Kd (HLA-A*33:01; [13]): 966 nM
Kd (HLA-B*53:01; [13]): 1250 nM
Kd (HLA-A*03:01 [9]; [13]): 397 nM
Kd (HLA-B*07:02 [10]; [13]): 16800 nM
Kd (HLA-A*68:01; [13]): 989 nM
Kd (HLA-A*11:01 [11]; [13]): 1780 nM
Kd (HLA-B*54:01; [13]): 1500 nM
Kd (HLA-B*35:01; [13]): 3050 nM

Kd (HLA-A*69:01; [15]): ≥ 20000 nM
Kd (HLA-B*15:01 [3]; [15]): ≥ 20000 nM
Kd (HLA-A*26:01; [15]): ≥ 20000 nM
Kd (HLA-B*40:01; [15]): ≥ 20000 nM
Kd (HLA-A*03:01 [4]; [15]): ≥ 20000 nM
Kd (HLA-B*58:01; [15]): ≥ 20000 nM
Kd (HLA-B*07:02 [5]; [15]): ≥ 20000 nM
Kd (HLA-A*24:03; [15]): 19.7 nM
Kd (HLA-A*11:01 [6]; [15]): ≥ 20000 nM
Kd (HLA-B*08:01 [7]; [15]): ≥ 20000 nM
Kd (HLA-A*02:01 [8]; [15]): ≥ 20000 nM
Kd (HLA-A*01:01; [15]): ≥ 20000 nM
Kd (HLA-B*27:05; [15]): ≥ 20000 nM
Sequence: VYFSPWFFL

Sequence: LPVYFGSVF
Kd (HLA-B*15:03; [13]): 123 nM

Sequence: KAGVRGWFL
Kd (HLA-B*57:01; [16]): 71.5 nM
Kd (HLA-B*15:17; [16]): 2280 nM
Kd (HLA-B*58:01; [16]): 225 nM

Sequence: VLFLQQSIF
Kd (HLA-B*15:03; [13]): 0.61 nM

Sequence: LSVPAAIMM
Kd (HLA-B*15:03; [13]): 68.5 nM

Sequence: FAAMIIRSF
Kd (HLA-B*15:03; [13]): 1.33 nM

Sequence: NLYSFTIVF
Kd (HLA-B*15:03; [17]): 31.2 nM

Sequence: RAYSVPETF
Kd (HLA-B*57:01; [16]): 41.8 nM
Kd (HLA-B*15:17; [16]): ≤ 1 nM
Kd (HLA-B*58:01; [16]): 14.5 nM

Sequence: ILMIFISSF
Kd (HLA-A*32:01; [13]): 86.7 nM
Kd (HLA-B*15:03; [13]): 11.9 nM

Sequence: FLIVSLCPT
Kd (HLA-A*02:01 [12]): 0.3 nM
Kd (HLA-B*51:01; [17]): ≥ 28600 nM
Kd (HLA-A*31:01; [17]): 3230 nM
Kd (HLA-A*33:01; [17]): 6550 nM
Kd (HLA-B*53:01; [17]): 6210 nM
Kd (HLA-A*03:01 [9]; [17]): 2590 nM
Kd (HLA-B*07:02 [10]; [17]): 12000 nM
Kd (HLA-A*68:01; [17]): 5310 nM
Kd (HLA-A*11:01 [11]; [17]): ≥ 48100 nM
Kd (HLA-B*54:01; [17]): 359 nM
Kd (HLA-B*35:01; [17]): 16000 nM

Sequence: SSNAKNSEW
Kd (HLA-B*57:01; [18]): 135 nM
Kd (HLA-B*15:17; [18]): 2.7 nM
Kd (HLA-B*58:01; [18]): 69.9 nM

Sequence: FYSSFVQTF
Kd (HLA-B*15:03; [13]): 38.8 nM

Sequence: KTKETNRIY
Kd (HLA-B*15:03; [13]): 172 nM
Kd (HLA-A*30:01): 10.7 nM

Sequence: KWKYENPCK
Kd (HLA-A*32:01; [13]): ≥ 59000 nM
Kd (HLA-B*15:01 [1]; [13]): ≥ 78100 nM
Kd (HLA-B*15:03; [13]): 296 nM
Kd (HLA-B*08:01 [2]): ≥ 50900 nM
Kd (HLA-A*30:01): 15 nM

Sequence: FPAIFSAEVL
Kd (HLA-B*51:01; [19]): 9910 nM
Kd (HLA-B*53:01; [19]): 332 nM
Kd (HLA-B*07:02 [10]; [19]): 1380 nM
Kd (HLA-B*54:01; [19]): 523 nM
Kd (HLA-B*35:01; [19]): 55.7 nM

Sequence: IQHNFTQIA
Kd (HLA-B*15:03; [13]): 0.251 nM

Sequence: LPSLIKTILA
Kd (HLA-B*51:01; [13]): 11000 nM
Kd (HLA-B*53:01; [13]): 1960 nM
Kd (HLA-B*07:02 [10]; [13]): 1520 nM
Kd (HLA-B*54:01; [13]): 1.54 nM
Kd (HLA-B*35:01; [13]): 2230 nM

Sequence: LQNSVVLQF
Kd (HLA-A*32:01; [17]): 7.33 nM
Kd (HLA-B*15:01 [1]; [17]): 1.51 nM
Kd (HLA-B*15:03; [17]): 6.22 nM

Sequence: KSPDVHEDF
Kd (HLA-B*57:01; [20]): 566 nM
Kd (HLA-B*15:17; [20]): ≥ 20000 nM
Kd (HLA-B*58:01; [20]): 921 nM

Sequence: MTVVSAVHF
Kd (HLA-A*32:01; [13]): 1940 nM
Kd (HLA-B*15:03; [13]): 278 nM

Sequence: FQRKPFNNI
Kd (HLA-B*15:03; [13]): 8.9 nM

Sequence: KSSLNISGY
Kd (HLA-B*57:01; [19]): 574 nM
Kd (HLA-B*15:17; [19]): 1.6 nM
Kd (HLA-B*58:01; [19]): 37.7 nM

Sequence: SATYATVPF
Kd (HLA-B*15:03; [17]): 12 nM

Sequence: LYTVKYPNL
Kd (HLA-A*24:03; source organism: Mammarenavirus machupoense): 30.1 nM
Kd (HLA-A*24:02): 2430 nM
Kd (HLA-A*29:02): ≥ 23500 nM
Kd (HLA-A*23:01): 230 nM
